# B1: recombinant Flag-JHDM2A (JmjC domain-containing histone demethylase 2A) (protein)
# chain: MVLTLGESWPVLVGRRFLSLSAADGSDGSHDSWDVERVAEWPWLSGTIRAVSHTDVTKKDLKVCVEFDGESWRKRRWIEVYSLLRRAFLVEHNLVLAERKSPEISERIVQWPAITYKPLLDKAGLGSITSVRFLGDQQRVFLSKDLLKPIQDVNSLRLSLTDNQIVSKEFQALIVKHLDESHLLKGDKNLVGSEVKIYSLDPSTQWFSATVINGNPASKTLQVNCEEIPALKIVDPSLIHVEVVHDNLVTCGNSARIGAVKRKSSENNGTLVSKQAKSCSEASPSMCPVQSVPTTVFKEILLGCTAATPPSKDPRQQSTPQAANSPPNLGAKIPQGCHKQSLPEEISSCLNTKSEALRTKPDVCKAGLLSKSSQIGTGDLKILTEPKGSCTQPKTNTDQENRLESVPQALTGLPKECLPTKASSKAELEIANPPELQKHLEHAPSPSDVSNAPEVKAGVNSDSPNNCSGKKVEPSALACRSQNLKESSVKVDNESCCSRSNNKIQNAPSRKSVLTDPAKLKKLQQSGEAFVQDDSCVNIVAQLPKCRECRLDSLRKDKEQQKDSPVFCRFFHFRRLQFNKHGVLRVEGFLTPNKYDNEAIGLWLPLTKNVVGIDLDTAKYILANIGDHFCQMVISEKEAMSTIEPHRQVAWKRAVKGVREMCDVCDTTIFNLHWVCPRCGFGVCVDCYRMKRKNCQQGAAYKTFSWLKCVKSQIHEPENLMPTQIIPGKALYDVGDIVHSVRAKWGIKANCPCSNRQFKLFSKPASKEDLKQTSLAGEKPTLGAVLQQNPSVLEPAAVGGEAASKPAGSMKPACPASTSPLNWLADLTSGNVNKENKEKQPTMPILKNEIKCLPPLPPLSKSSTVLHTFNSTILTPVSNNNSGFLRNLLNSSTGKTENGLKNTPKILDDIFASLVQNKTTSDLSKRPQGLTIKPSILGFDTPHYWLCDNRLLCLQDPNNKSNWNVFRECWKQGQPVMVSGVHHKLNSELWKPESFRKEFGEQEVDLVNCRTNEIITGATVGDFWDGFEDVPNRLKNEKEPMVLKLKDWPPGEDFRDMMPSRFDDLMANIPLPEYTRRDGKLNLASRLPNYFVRPDLGPKMYNAYGLITPEDRKYGTTNLHLDVSDAANVMVYVGIPKGQCEQEEEVLKTIQDGDSDELTIKRFIEGKEKPGALWHIYAAKDTEKIREFLKKVSEEQGQENPADHDPIHDQSWYLDRSLRKRLHQEYGVQGWAIVQFLGDVVFIPAGAPHQVHNLYSCIKVAEDFVSPEHVKHCFWLTQEFRYLSQTHTNHEDKLQVKNVIYHAVKDAVAMLKASESSFGKP
# B2: recombinant Flag-JHDM1A (FBXL11) (protein)
# chain: MEPEEERIRYSQRLRGTMRRRYEDDGISDDEIEGKRTFDLEEKLHTNKYNANFVTFMEGKDFNVEYIQRGGLRDPLIFKNSDGLGIKMPDPDFTVNDVKMCVGSRRMVDVMDVNTQKGIEMTMAQWTRYYETPEEEREKLYNVISLEFSHTRLENMVQRPSTVDFIDWVDNMWPRHLKESQTESTNAILEMQYPKVQKYCLMSVRGCYTDFHVDFGGTSVWYHIHQGGKVFWLIPPTAHNLELYENWLLSGKQGDIFLGDRVSDCQRIELKQGYTFVIPSGWIHAVYTPTDTLVFGGNFLHSFNIPMQLKIYNIEDRTRVPNKFRYPFYYEMCWYVLERYVYCITNRSHLTKEFQKESLSMDLELNGLESGNGDEEAVDREPRRLSSRRSVLTSPVANGVNLDYDGLGKTCRSLPSLKKTLAGDSSSDCSRGSHNGQVWDPQCAPRKDRQVHLTHFELEGLRCLVDKLESLPLHKKCVPTGIEDEDALIADVKILLEELANSDPKLALTGVPIVQWPKRDKLKFPTRPKVRVPTIPITKPHTMKPAPRLTPVRPAAASPIVSGARRRRVRCRKCKACVQGECGVCHYCRDMKKFGGPGRMKQSCVLRQCLAPRLPHSVTCSLCGEVDQNEETQDFEKKLMECCICNEIVHPGCLQMDGEGLLNEELPNCWECPKCYQEDSSEKAQKRKMEESDEEAVQAKVLRPLRSCDEPLTPPPHSPTSMLQLIHDPVSPRGMVTRSSPGAGPSDHHSASRDERFKRRQLLRLQATERTMVREKENNPSGKKELSEVEKAKIRGSYLTVTLQRPTKELHGTSIVPKLQAITASSANLRHSPRVLVQHCPARTPQRGDEEGLGGEEEEEEEEEEEDDSAEEGGAARLNGRGSWAQDGDESWMQREVWMSVFRYLSRRELCECMRVCKTWYKWCCDKRLWTKIDLSRCKAIVPQALSGIIKRQPVSLDLSWTNISKKQLTWLVNRLPGLKDLLLAGCSWSAVSALSTSSCPLLRTLDLRWAVGIKDPQIRDLLTPPADKPGQDNRSKLRNMTDFRLAGLDITDATLRLIIRHMPLLSRLDLSHCSHLTDQSSNLLTAVGSSTRYSLTELNMAGCNKLTDQTLIYLRRIANVTLIDLRGCKQITRKACEHFISDLSINSLYCLSDEKLIQKIS
# B3: recombinant Flag-RBP2 (Retinoblastoma Binding Protein 2, JARID1A) (protein)
# chain: MAGVGPGGYAAEFVPPPECPVFEPSWEEFTDPLSFIGRIRPLAEKTGICKIRPPKDWQPPFACEVKSFRFTPRVQRLNELEAMTRVRLDFLDQLAKFWELQGSTLKIPVVERKILDLYALSKIVASKGGFEMVTKEKKWSKVGSRLGYLPGKGTGSLLKSHYERILYPYELFQSGVSLMGVQMPNLDLKEKVEPEVLSTDTQTSPEPGTRMNILPKRTRRVKTQSESGDVSRNTELKKLQIFGAGPKVVGLAMGTKDKEDEVTRRRKVTNRSDAFNMQMRQRKGTLSVNFVDLYVCMFCGRGNNEDKLLLCDGCDDSYHTFCLIPPLPDVPKGDWRCPKCVAEECSKPREAFGFEQAVREYTLQSFGEMADNFKSDYFNMPVHMVPTELVEKEFWRLVSSIEEDVIVEYGADISSKDFGSGFPVKDGRRKILPEEEEYALSGWNLNNMPVLEQSVLAHINVDISGMKVPWLYVGMCFSSFCWHIEDHWSYSINYLHWGEPKTWYGVPSHAAEQLEEVMRELAPELFESQPDLLHQLVTIMNPNVLMEHGVPVYRTNQCAGEFVVTFPRAYHSGFNQGYNFAEAVNFCTADWLPIGRQCVNHYRRLRRHCVFSHEELIFKMAADPECLDVGLAAMVCKELTLMTEEETRLRESVVQMGVLMSEEEVFELVPDDERQCSACRTTCFLSALTCSCNPERLVCLYHPTDLCPCPMQKKCLRYRYPLEDLPSLLYGVKVRAQSYDTWVSRVTEALSANFNHKKDLIELRVMLEDAEDRKYPENDLFRKLRDAVKEAETCASVAQLLLSKKQKHRQSPDSGRTRTKLTVEELKAFVQQLFSLPCVISQARQVKNLLDDVEEFHERAQEAMMDETPDSSKLQMLIDMGSSLYVELPELPRLKQELQQARWLDEVRLTLSDPQQVTLDVMKKLIDSGVGLAPHHAVEKAMAELQELLTVSERWEEKAKVCLQARPRHSVASLESIVNEAKNIPAFLPNVLSLKEALQKAREWTAKVEAIQSGSNYAYLEQLESLSAKGRPIPVRLEALPQVESQVAAARAWRERTGRTFLKKNSSHTLLQVLSPRTDIGVYGSGKNRRKKVKELIEKEKEKDLDLEPLSDLEEGLEETRDTAMVVAVFKEREQKEIEAMHSLRAANLAKMTMVDRIEEVKFCICRKTASGFMLQCELCKDWFHNSCVPLPKSSSQKKGSSWQAKEVKFLCPLCMRSRRPRLETILSLLVSLQKLPVRLPEGEALQCLTERAMSWQDRARQALATDELSSALAKLSVLSQRMVEQAAREKTEKIISAELQKAAANPDLQGHLPSFQQSAFNRVVSSVSSSPRQTMDYDDEETDSDEDIRETYGYDMKDTASVKSSSSLEPNLFCDEEIPIKSEEVVTHMWTAPSFCAEHAYSSASKSCSQGSSTPRKQPRKSPLVPRSLEPPVLELSPGAKAQLEELMMVGDLLEVSLDETQHIWRILQATHPPSEDRFLHIMEDDSMEEKPLKVKGKDSSEKKRKRKLEKVEQLFGEGKQKSKELKKMDKPRKKKLKLGADKSKELNKLAKKLAKEEERKKKKEKAAAAKVELVKESTEKKREKKVLDIPSKYDWSGAEESDDENAVCAAQNCQRPCKDKVDWVQCDGGCDEWFHQVCVGVSPEMAENEDYICINCAKKQGPVSPGPAPPPSFIMSYKLPMEDLKETS
# B4: recombinant Flag-JHDM3A (JMJD2A) (protein)
# chain: MASESETLNPSARIMTFYPTMEEFRNFSRYIAYIESQGAHRAGLAKVVPPKEWKPRASYDDIDDLVIPAPIQQLVTGQSGLFTQYNIQKKAMTVREFRKIANSDKYCTPRYSEFEELERKYWKNLTFNPPIYGADVNGTLYEKHVDEWNIGRLRTILDLVEKESGITIEGVNTPYLYFGMWKTSFAWHTEDMDLYSINYLHFGEPKSWYSVPPEHGKRLERLAKGFFPGSAQSCEAFLRHKMTLISPLMLKKYGIPFDKVTQEAGEFMITFPYGYHAGFNHGFNCAESTNFATRRWIEYGKQAVLCSCRKDMVKISMDVFVRKFQPERYKLWKAGKDNTVIDHTLPTPEAAEFLKESELPPRAGNEEECPEEDMEGVEDGEEGDLKTSLAKHRIGTKRHRVCLEIPQEVSQSELFPKEDLSSEQYEMTECPAALAPVRPTHSSVRQVEDGLTFPDYSDSTEVKFEELKNVKLEEEDEEEEQEAAALDLSVNPASVGGRLVFSGSKKKSSSSLGSGSSRDSISSDSETSEPLSCRAQGQTGVLTVHSYAKGDGRVTVGEPCTRKKGSAARSFSERELAEVADEYMFSLEENKKSKGRRQPLSKLPRHHPLVLQECVSDDETSEQLTPEEEAEETEAWAKPLSQLWQNRPPNFEAEKEFNETMAQQAPHCAVCMIFQTYHQVEFGGFNQNCGNASDLAPQKQRTKPLIPEMCFTSTGCSTDINLSTPYLEEDGTSILVSCKKCSVRVHASCYGVPPAKASEDWMCSRCSANALEEDCCLCSLRGGALQRANDDRWVHVSCAVAILEARFVNIAERSPVDVSKIPLPRFKLKCIFCKKRRKRTAGCCVQCSHGRCPTAFHVSCAQAAGVMMQPDDWPFVVFITCFRHKIPNLERAKGALQSITAGQKVISKHKNGRFYQCEVVRLTTETFYEVNFDDGSFSDNLYPEDIVSQDCLQFGPPAEGEVVQVRWTDGQVYGAKFVASHPIQMYQVEFEDGSQLVVKRDDVYTLDEELPKRVKSRLSVASDMRFNEIFTEKEVKQEKKRQRVINSRYREDYIEPALYRAIME
# Columns and labels:
# [1] = molecular target: T1, trimethyl-K9 histone H3 peptide (acetyl-ARTKQTARmeKSTGGKAPRK-biotin)
# T1 chain: ARTKQTARKSTGGKAPRK
# [2] = molecular target: T2, dimethyl-K9 histone H3 peptide (acetyl-ARTKQTARmeKSTGGKAPRK-biotin)
# T2 chain: ARTKQTARKSTGGKAPRK
# [3] = molecular target: trimethyl-K36 histone H3 peptide
# [4] = molecular target: T3, dimethyl-K36 histone H3 peptide (STGGV2mKKPHRY-C)
# T3 chain: STGGVKKPHRYC
# [5] = molecular target: T4, histone H3 (1-18) peptide, H3K4me3 (Upstate 12-564), P68431
# T4 chain: ARTKQTARKSTGGKAPRK
# [6] = molecular target: T5, histone H3 (1-18) peptide, H3K4me1 (Upstate 12-563), P68431
# T5 chain: ARTKQTARKSTGGKAPRK
# [7] = molecular target: T6, histone H3 (1-18) peptide, H3K4me2 (Upstate 12-460), P68431
# T6 chain: ARTKQTARKSTGGKAPRK
# [8] = molecular target: T7, histone H3 (1-18) peptide, tri-methyl on lysine 9, P68431
# T7 chain: ARTKQTARKSTGGKAPRK
# [9] = molecular target: T8, histone H3 (1-18) peptide, di-methyl on lysine 9, P68431
# T8 chain: ARTKQTARKSTGGKAPRK
protein,measurement,setting,value
B1,"demethylation of peptide substrate, mass spectrometry",[1],"no demethylation was detected when a trimethyl-K9 peptide, that has the same sequence, was subjected to parallel analysis"
same,"demethylation of peptide substrate, mass spectrometry",[2],demethylation of a dimethyl-K9 peptide depends on the presence of JHDM2A and generated products with masses that correlate with both mono-methyl and unmethylated forms of the peptide
B2,"demethylation of peptide substrate, mass spectrometry",[3],we did not detect any demethylation when a trimethyl-K36 peptide was subjected to a parallel reaction (data not shown)
same,"demethylation of peptide substrate, mass spectrometry",[4],revealed the generation of mono- and unmethylated forms of the peptide in a JHDM1A-dependent manner
B3,"demethylation of peptide substrate, mass spectrometry",[5],80-90% demethylation of the modified substrate
same,"demethylation of peptide substrate, mass spectrometry",[6],failed to catalyze removal of the mel modification state
same,"demethylation of peptide substrate, mass spectrometry",[7],80-90% demethylation of the modified substrate
B4,"demethylation of peptide substrate, mass spectrometry",[8],the trimethyl-K9 peptide was converted to a dimethyl-K9 peptide
same,"demethylation of peptide substrate, mass spectrometry",[9],no demethylation was observed on a di-methyl H3K9 peptide

# Source: US20160244802
